Data as given in the supplement of paper PMC10057847, “Precision engineering of biological function with large-scale measurements and machine learning” (PLOS ONE, 2023).
± gives the uncertainty stated by the source.

B1: library; the commonest letter at each place (parent)
chain: MKPVTLYDVAEYAGVSYQTVSRVVNQASHVSAKTREKVEAAMAELNYIPNRVAQQLAGKQSLLIGVATSSLALHAPSQIVAAIKSRADQLGASVVVSMVERSGVEACKAAVHNLLAQRVSGLIINYPLDDQDAIAVEAACTNVPALFLDVSDQTPINSIIFSHEDGTRLGVEHLVALGHQQIALLAGPLSSVSARLRLAGWHKYLTRNQIQPIAEREGDWSAMSGFQQTMQMLNEGIVPTAMLVANDQMALGAMRAITESGLRVGADISVVGYDDTEDSSCYIPPLTTIKQDFRLLGQTSVDRLLQLSQGQAVKGNQLLPVSLVKRKTTLAPNTQTASPRALADSLMQLARQVSRLESGQ

Assays:
Settings in all cases: with IPTG
IPTG [1] = variants of: B1
Outline: (§1)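 Geometric mean YFP fluorescence from gated, bead-calibrated (MEF) flow cytometry was fitted against IPTG with Bayesian MCMC Hill models over non-outlier replicates to yield EC50, G0, G∞ and n with uncertainties. The E. coli MG1655Δlac cells held LacI on pVER and eYFP behind lacO and were grown at 37 °C in rich M9 with kanamycin. They were then grown in two 160-min steps across a 2-fold IPTG series plus no IPTG and diluted in PBS with chloramphenicol before reading.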

IPTG [2] = variants of: B1; experiment: Hill coefficient n (dimensionless); higher = steeper dose response
Outline: as §1

IPTG [3] = variants of: B1; experiment: basal output G0 (YFP, no IPTG) (log10 MEF); higher = higher reporter expression without inducer
Outline: as §1

IPTG [4] = variants of: B1; experiment: saturating output G-infinity (YFP) (log10 MEF); higher = higher reporter expression at saturating IPTG
Outline: as §1

Row | Variant | EC50 for IPTG (log10 µmol/L) (IPTG [1]) | Hill coefficient n (IPTG [2]) | basal output G0 (log10) (IPTG [3]) | saturating output G-infinity (log10) (IPTG [4])
1 | S69F | 1.05 ± 0.042 | 1.51 ± 0.14 | 2.66 ± 0.67 | 4.379 ± 0.015
2 | S69T L169P | 2.348 ± 0.019 | 1.43 ± 0.062 | 2.68 ± 0.082 | 4.362 ± 0.0071
3 | I83F | 1.29 ± 0.02 | 1.43 ± 0.06 | 2.91 ± 0.064 | 4.434 ± 0.0071
4 | I83M | 2.555 ± 0.019 | 1.48 ± 0.049 | 1.45 ± 0.61 | 4.268 ± 0.0077
5 | Q55H D130E V192A T258I D267N Y273H N333I | 2.889 ± 0.028 | 1.39 ± 0.097 | 4.402 ± 0.0063 | 3.681 ± 0.016
6 | S70R V96E T154I S158R V238D M254I V264I | 3.671 ± 0.018 | 3 ± 0.23 | 4.516 ± 0.0061 | 3.396 ± 0.026
7 | S97T V136E | 1.37 ± 0.038 | 1.42 ± 0.12 | 3.05 ± 0.078 | 4.331 ± 0.013
8 | I83M S97T | 2.18 ± 0.046 | 1.52 ± 0.16 | 1.25 ± 0.81 | 4.399 ± 0.017
9 | E100V T299I | 0.9867 ± 0.0075 | 1.54 ± 0.032 | 3.09 ± 0.037 | 4.4562 ± 0.0024
10 | A72V K84N I210F M254T T336S | 0.962 ± 0.049 | 0.934 ± 0.078 | 4.369 ± 0.0082 | 4.067 ± 0.0058
11 | D88Y A241V N246S L305M L319F P339T A341T L346S | 2.73 ± 0.1 | 0.483 ± 0.058 | 4.455 ± 0.018 | 2.91 ± 1.1
12 | L90Q L198M E235D T336S | 1.88 ± 0.022 | 1.61 ± 0.073 | 2.51 ± 0.2 | 4.423 ± 0.0091
13 | V96M | 2.315 ± 0.015 | 1.46 ± 0.048 | 1.73 ± 0.53 | 4.175 ± 0.006
14 | V136E | 1.69 ± 0.034 | 1.5 ± 0.13 | 2.46 ± 0.36 | 4.015 ± 0.014
15 | P285S V301M S308P M347V | 0.927 ± 0.019 | 1.33 ± 0.057 | 3.595 ± 0.017 | 4.489 ± 0.0054
16 | N208Y | 2.01 ± 0.0066 | 1.64 ± 0.026 | 2.24 ± 0.14 | 4.4021 ± 0.003
17 | V95M Q335R Q360R | 2.01 ± 0.05 | 1.49 ± 0.13 | 2.02 ± 0.65 | 4.169 ± 0.022
18 | L56M | 1.05 ± 0.033 | 1.39 ± 0.12 | 3.976 ± 0.018 | 4.548 ± 0.0075
19 | S70R S190C | 1.547 ± 0.0043 | 1.47 ± 0.017 | 2.64 ± 0.029 | 4.2816 ± 0.0016

Row | Variant | EC50 for IPTG (log10 µmol/L) (IPTG [1]) | Hill coefficient n (IPTG [2]) | basal output G0 (log10) (IPTG [3]) | saturating output G-infinity (log10) (IPTG [4])
20 | N113D D132N T154R M242I V313A K314N R340S | 2.033 ± 0.011 | 1.64 ± 0.048 | 1.59 ± 0.65 | 4.226 ± 0.0048
21 | P76Q V150A N157D Q181H I210L M254T I283N | 2.23 ± 0.046 | 1.11 ± 0.11 | 4.237 ± 0.007 | 3.925 ± 0.008
22 | S70R V271M | 1.521 ± 0.012 | 1.46 ± 0.044 | 2.7 ± 0.066 | 4.268 ± 0.0045
23 | V80L I83M | 2.444 ± 0.013 | 1.37 ± 0.045 | 0.521 ± 0.46 | 3.718 ± 0.0043
24 | L56M Q317L | 1.07 ± 0.085 | 1.44 ± 0.3 | 3.96 ± 0.044 | 4.485 ± 0.018
25 | Q291L | 2.064 ± 0.017 | 1.61 ± 0.052 | 2.22 ± 0.21 | 4.407 ± 0.0075
26 | I160N R263S L305Q | 2.561 ± 0.022 | 1.61 ± 0.054 | 1.14 ± 0.59 | 4.285 ± 0.012
27 | V136E L169P | 4.914 ± 0.028 | 2.33 ± 0.32 | 4.5429 ± 0.0026 | 1.85 ± 1.1
28 | V301M | 1.82 ± 0.049 | 1.53 ± 0.16 | 2.32 ± 0.83 | 4.469 ± 0.021
29 | S70R | 1.42 ± 0.021 | 1.44 ± 0.064 | 2.58 ± 0.09 | 4.22 ± 0.0077
30 | V80L A87P V301M E357G | 1.57 ± 0.045 | 1.15 ± 0.079 | 4.52 ± 0.015 | 3.493 ± 0.02
31 | V95M A337T | 2.109 ± 0.018 | 1.59 ± 0.082 | 2.13 ± 0.64 | 4.23 ± 0.0081
32 | V80L | 2.098 ± 0.0098 | 1.52 ± 0.036 | 1.75 ± 0.28 | 3.914 ± 0.0043
33 | Q231R | 2.063 ± 0.0082 | 1.67 ± 0.03 | 2.29 ± 0.081 | 4.3759 ± 0.0039
34 | V80L S279T | 1.566 ± 0.0048 | 1.56 ± 0.023 | 2.07 ± 0.088 | 3.9365 ± 0.0017
35 | L90Q R101G C140G L169Q K290I T329S | 1.57 ± 0.01 | 1.54 ± 0.041 | 3.06 ± 0.033 | 4.4822 ± 0.004
36 | D88N | 2.843 ± 0.028 | 1.33 ± 0.086 | 0.96 ± 0.58 | 3.479 ± 0.0093
37 | D88G | 2.671 ± 0.015 | 1.41 ± 0.046 | 0.914 ± 0.56 | 3.854 ± 0.0057
38 | R51H | 1.19 ± 0.02 | 1.46 ± 0.061 | 3.701 ± 0.013 | 4.63 ± 0.0066

Row | Variant | EC50 for IPTG (log10 µmol/L) (IPTG [1]) | Hill coefficient n (IPTG [2]) | basal output G0 (log10) (IPTG [3]) | saturating output G-infinity (log10) (IPTG [4])
39 | R51C | 0.988 ± 0.036 | 1.44 ± 0.14 | 3.91 ± 0.021 | 4.49 ± 0.0086
40 | S69F V95A A110E I159S | 1.109 ± 0.01 | 1.64 ± 0.055 | 2.8 ± 0.081 | 4.2252 ± 0.003
41 | D130E | 1.902 ± 0.012 | 1.76 ± 0.057 | 2.29 ± 0.45 | 4.467 ± 0.0052
42 | V271M | 2.089 ± 0.0097 | 1.64 ± 0.034 | 2.19 ± 0.19 | 4.413 ± 0.0046
43 | I83M V136E | 1.48 ± 0.029 | 1.21 ± 0.075 | 4.519 ± 0.0083 | 3.789 ± 0.011
44 | S97T F161V | 2.22 ± 0.032 | 1.59 ± 0.087 | 2.49 ± 0.21 | 4.47 ± 0.016
45 | Q60R N113S R207G R216G V271M L307I A350T | 2.236 ± 0.011 | 1.62 ± 0.029 | 2.28 ± 0.058 | 4.401 ± 0.0051
46 | S70R A87P V301M E357G | 3.59 ± 0.015 | 1.66 ± 0.081 | 4.5727 ± 0.004 | 3.672 ± 0.019
47 | L62M A109V D149E M242V P285S Q317R | 2.91 ± 0.051 | 1.37 ± 0.066 | 2.56 ± 0.042 | 4.412 ± 0.028
48 | G121V G261V | 1.847 ± 0.017 | 1.58 ± 0.052 | 2.58 ± 0.083 | 4.418 ± 0.0075
49 | K84E D88Y L90P Q153L A199V L342M R351P S358R | 1.47 ± 0.046 | 0.795 ± 0.045 | 4.34 ± 0.01 | 3.722 ± 0.01
50 | I83F G200C | 1.913 ± 0.0091 | 1.48 ± 0.032 | 3.03 ± 0.023 | 4.4658 ± 0.0031
51 | A194V | 3.35 ± 0.048 | 1.61 ± 0.06 | 2.01 ± 0.08 | 4.322 ± 0.041
52 | S70R I83F | 1.24 ± 0.028 | 1.36 ± 0.079 | 3.18 ± 0.04 | 4.347 ± 0.0092
53 | S70R F161V | 2.02 ± 0.013 | 1.29 ± 0.039 | 3.01 ± 0.037 | 4.3852 ± 0.0042
54 | T68I | 1.41 ± 0.045 | 1.28 ± 0.1 | 3.24 ± 0.054 | 4.419 ± 0.015
55 | H74Y A92V H112L S151T D165N H179Q | 1.29 ± 0.014 | 1.54 ± 0.049 | 4.426 ± 0.0049 | 3.262 ± 0.017
56 | S69T V80L | 1.75 ± 0.025 | 1.38 ± 0.066 | 1.09 ± 0.68 | 4.182 ± 0.0044
57 | I83M S97T V136E | 2.29 ± 0.05 | 0.765 ± 0.058 | 4.52 ± 0.0074 | 4.113 ± 0.012
